Results as given in patent publication US20220289850 (published 2022).

Target: T1, human integrin avb3 (human, UniProt P06756)
T1 chain 1: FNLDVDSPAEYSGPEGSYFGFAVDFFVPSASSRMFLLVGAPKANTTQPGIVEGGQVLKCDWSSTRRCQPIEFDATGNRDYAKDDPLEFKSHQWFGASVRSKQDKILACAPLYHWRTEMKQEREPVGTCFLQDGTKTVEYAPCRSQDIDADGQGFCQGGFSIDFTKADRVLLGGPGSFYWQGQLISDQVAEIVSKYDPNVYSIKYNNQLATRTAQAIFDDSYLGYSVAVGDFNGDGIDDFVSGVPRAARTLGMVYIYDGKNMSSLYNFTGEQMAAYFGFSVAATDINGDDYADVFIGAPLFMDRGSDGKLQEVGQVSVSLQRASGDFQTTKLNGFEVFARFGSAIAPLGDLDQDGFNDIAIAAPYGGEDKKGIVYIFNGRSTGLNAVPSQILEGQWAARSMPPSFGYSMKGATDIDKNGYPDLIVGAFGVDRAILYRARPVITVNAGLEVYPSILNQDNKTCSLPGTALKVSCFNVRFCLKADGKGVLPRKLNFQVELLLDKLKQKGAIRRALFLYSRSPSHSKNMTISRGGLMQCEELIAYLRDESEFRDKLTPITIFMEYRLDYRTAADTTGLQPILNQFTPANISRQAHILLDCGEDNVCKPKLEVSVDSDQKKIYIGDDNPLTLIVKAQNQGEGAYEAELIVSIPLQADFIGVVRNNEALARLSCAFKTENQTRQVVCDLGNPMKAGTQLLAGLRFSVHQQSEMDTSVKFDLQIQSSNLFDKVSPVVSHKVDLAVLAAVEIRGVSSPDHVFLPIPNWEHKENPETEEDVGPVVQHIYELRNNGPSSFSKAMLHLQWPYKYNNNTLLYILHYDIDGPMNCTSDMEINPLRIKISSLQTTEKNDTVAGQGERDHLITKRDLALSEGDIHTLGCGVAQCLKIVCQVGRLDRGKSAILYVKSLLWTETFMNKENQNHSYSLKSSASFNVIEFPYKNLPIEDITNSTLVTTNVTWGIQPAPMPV
T1 chain 2: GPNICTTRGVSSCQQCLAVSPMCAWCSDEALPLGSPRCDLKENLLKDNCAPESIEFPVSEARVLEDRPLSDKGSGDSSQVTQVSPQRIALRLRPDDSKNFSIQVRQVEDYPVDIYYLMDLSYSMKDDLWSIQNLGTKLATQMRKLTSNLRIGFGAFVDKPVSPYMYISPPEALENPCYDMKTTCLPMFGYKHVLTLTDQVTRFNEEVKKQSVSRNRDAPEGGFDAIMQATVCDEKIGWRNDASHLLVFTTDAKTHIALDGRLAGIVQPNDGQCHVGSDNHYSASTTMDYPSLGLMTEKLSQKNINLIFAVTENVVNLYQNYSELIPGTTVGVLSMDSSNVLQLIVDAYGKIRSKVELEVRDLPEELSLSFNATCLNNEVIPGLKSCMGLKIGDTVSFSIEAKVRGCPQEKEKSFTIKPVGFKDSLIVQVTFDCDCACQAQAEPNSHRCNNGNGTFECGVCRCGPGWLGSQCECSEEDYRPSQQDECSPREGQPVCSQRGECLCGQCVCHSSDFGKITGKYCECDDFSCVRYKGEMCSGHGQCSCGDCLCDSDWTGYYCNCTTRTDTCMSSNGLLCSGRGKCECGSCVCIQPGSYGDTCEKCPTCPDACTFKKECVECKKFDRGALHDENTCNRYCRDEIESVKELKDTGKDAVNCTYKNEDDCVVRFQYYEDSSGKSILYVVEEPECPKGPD
Assay: SPR

B1: ADWA11 2.4 IgG (antibody)
chain 1: EVQLVESGGGLVQPGGSLRLSCAASGFNIKDYYMNWVRQAPGKGLEWVGWIDPDQGNTIYEPKFQGRFTISADTSKNSAYLQMNSLRAEDTAVYYCARRLLMDYWGQGTLVTVSSASTKGPSVFPLAPSSKSTSGGTAALGCLVKDYFPEPVTVSWNSGALTSGVHTFPAVLQSSGLYSLSSVVTVPSSSLGTQTYICNVNHKPSNTKVDKKVEPKSCDKTHTCPPCPAPEAAGAPSVFLFPPKPKDTLMISRTPEVTCVVVDVSHEDPEVKFNWYVDGVEVHNAKTKPREEQYNSTYRVVSVLTVLHQDWLNGKEYKCKVSNKALPAPIEKTISKAKGQPREPQVYTLPPSREEMTKNQVSLTCLVKGFYPSDIAVEWESNGQPENNYKTTPPVLDSDGSFFLYSKLTVDKSRWQQGNVFSCSVMHEALHNHYTQKSLSLSPGK
chain 2: DIQMTQSPSSLSASVGDRVTITCRSTKSLSHFNGNTYLFWYQQKPGKAPKRLIYYMSSLASGVPSRFSGSGSGTDFTLTISSLQPEDFATYYCQQSLEYPFTFGGGTKVEIKRTVAAPSVFIFPPSDEQLKSGTASVVCLLNNFYPREAKVQWKVDNALQSGNSQESVTEQDSKDSTYSLSSTLTLSKADYEKHKVYACEVTHQGLSSPVTKSFNRGEC
  binding result: no binding
